Measured values reported in the supplement of paper PMC10724198.
± gives the standard deviation of the averaged measurements.

Tested on: Saccharomyces cerevisiae
Assay: protein stability index of tFT-peptide fusion (C-terminal peptide) (PSI (0-1 scale)); higher = more stable (slower turnover)
Details: genetic background: wild type; temperature: 30 C
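Further: PSI is a weighted mean of sequencing reads over stability bins, variants kept only with over 10 reads, mCherry proximal and sfGFP distal, peptide attached via GGGS linker.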

Sequence	protein stability index
PLLASRFLQVGF	0.678 ± 0.0074
PLLLHHPPPRVP	0.666 ± 0.029
PLLPLPPNPSPP	0.681 ± 0.022
PLLPSPPLLLPS	0.819 ± 0.12
PLLSYSPPAPPP	0.664 ± 0.024
PLLTPPFFPPPP	0.7588 ± 0.0053
PLNQKPPDWPTQ	0.734 ± 0.015
PLNSNSYDASPL	0.658 ± 0.052
PLPALPPPPRGP	0.636 ± 0.026
PLPAPPLPPRSP	0.703 ± 0.012
PLPDPPPTPSGT	0.682 ± 0.058
PLPGPSPPPAPP	0.648 ± 0.044
PLPHPPPPPPLP	0.768 ± 0.026
PLPINAGVRITP	0.671 ± 0.1
PLPLHLATPHLF	0.694 ± 0.05
PLPLPLPSRPRP	0.653 ± 0.044
PLPMPHPRSRST	0.673 ± 0.014
PLPPCSARPPPR	0.7657 ± 0.0042
PLPPDPPCPPPP	0.651 ± 0.072
PLPPLPPPLPAP	0.705 ± 0.052
PLPPLPSTHPTL	0.698 ± 0.035
PLPPPLPNPPPS	0.667 ± 0.074
PLPPPLPPPGPH	0.731 ± 0.053

Sequence	protein stability index
PLPPPPARLPSP	0.703 ± 0.017
PLPPPPHPLLLL	0.681 ± 0.024
PLPPPPRLPPRH	0.677 ± 0.04
PLPPPPYPPTLL	0.592 ± 0.016
PLPPPSPSSLSP	0.713 ± 0.074
PLPPRSPPRRPS	0.634 ± 0.079
PLPPSAPPLPPS	0.778 ± 0.091
PLPSFPFPRPSS	0.634 ± 0.037
PLPSHSRSRHPR	0.744 ± 0.075
PLPSLLLLPPFP	0.701 ± 0.058
PLPSPPPPFLSL	0.71 ± 0.048
PLPSPPPSATSL	0.602 ± 0.045
PLPTPTPPPPAP	0.734 ± 0.028
PLPTSRKSFGLV	0.665 ± 0.06
PLPWIFHCRAPL	0.719 ± 0.048
PLQEHYRQIFPD	0.71 ± 0.0044
PLQFLPPLPCVS	0.539 ± 0.039
PLQFSLADEFST	0.705 ± 0.02
PLRFSSFSFPGW	0.739 ± 0.13
PLRRPPRLPAPP	0.7 ± 0.11
PLRTRESIGARG	0.707 ± 0.038
PLSASPLPPFSR	0.734 ± 0.11
PLSCDSPFVNPT	0.737 ± 0.042

Sequence	protein stability index
PLSFPALFSPLS	0.684 ± 0.034
PLSHSPPAPSSP	0.658 ± 0.026
PLSLICLLKSYL	0.708 ± 0.025
PLSLPLSLLCPP	0.698 ± 0.051
PLSLPPPSPRPP	0.657 ± 0.013
PLSLSVPPAFFI	0.538 ± 0.14
PLSPLALLPLRF	0.694 ± 0.065
PLSPLSLSPVAP	0.62 ± 0.026
PLSPPPPSHIPP	0.653 ± 0.023
PLTNPPCLTKYP	0.793 ± 0.033
PLTPPPAVHTYL	0.72 ± 0.037
PLTPVSPSPNPV	0.648 ± 0.042
PLTSNTSPPPMT	0.618 ± 0.072
PLVQSSCCRNYY	0.7 ± 0.04
PLVVPPSPRPPP	0.735 ± 0.063
PLWAVRPLLPPE	0.677 ± 0.016
PMADACPAPPPQ	0.643 ± 0.041
PMPGATDCQRGC	0.615 ± 0.053
PNFPEPSLTDAL	0.716 ± 0.04
PNGSRPAHGVKN	0.646 ± 0.032
PNLPRHPFPPSS	0.74 ± 0.011
PNLTYNTLRVVL	0.638 ± 0.04
PNNANHIKHRQY	0.6722 ± 0.0012

Sequence	protein stability index
PNPEKPPGAPGQ	0.63 ± 0.087
PNPHDPQLPPPH	0.709 ± 0.05
PNPHGRPSIPAL	0.65 ± 0.039
PNPIHHPTSTTA	0.672 ± 0.053
PNQTRPHPHHNL	0.69 ± 0.02
PNRSPPLPRPLM	0.693 ± 0.0074
PPAICSFLSPPF	0.655 ± 0.017
PPALSLPAPLLP	0.6592 ± 0.0039
PPAPPARFPSPP	0.711 ± 0.068
PPAPPPLPPPTH	0.633 ± 0.049
PPAPPPLSPSPI	0.832 ± 0.04
PPAPRPRSPSPL	0.719 ± 0.0085
PPAPRVSPPPPP	0.712 ± 0.073
PPAPSSLTASPF	0.71 ± 0.08
PPARLPLPPPSP	0.753 ± 0.061
PPARPLFPLPRL	0.754 ± 0.077
PPASSPRRPTPP	0.675 ± 0.011
PPDGRPPPLRLM	0.679 ± 0.014
PPDSPSPLPPPP	0.681 ± 0.054
PPFLSPLRPPSL	0.781 ± 0.09
PPFPARPRPHPV	0.6623 ± 0.0056
PPFPLACPPLLF	0.657 ± 0.11
PPFPPPPPPPLS	0.714 ± 0.05

Sequence	protein stability index
PPFRPRPPPPSA	0.812 ± 0.17
PPFRRPPPDPQP	0.7343 ± 0.0059
PPFSTPFLPPSS	0.727 ± 0.072
PPFTLRPQVPTH	0.664 ± 0.0097
PPGQRGRRDRAA	0.647 ± 0.015
PPGSSPPPVLSL	0.703 ± 0.022
PPHGRKRRGKEP	0.776 ± 0.16
PPHHLPPGPPHP	0.72 ± 0.078
PPHLFLPSSMPF	0.693 ± 0.015
PPHPPPPSPALL	0.74 ± 0.01
PPHPPPRLPPPP	0.724 ± 0.043
PPHRRTPQRRCP	0.701 ± 0.013
PPIPPSAPLCPP	0.688 ± 0.014
PPIPYIVPPSYT	0.657 ± 0.015
PPITKKITRNTA	0.676 ± 0.014
PPIWYAKHRPAP	0.6904 ± 0.0069
PPLCPPLQPPLI	0.639 ± 0.02
PPLFRPPASAPR	0.715 ± 0.018
PPLLPLPPRPLL	0.728 ± 0.044
PPLLPPPPQLLL	0.679 ± 0.028
PPLLPPPVPPVP	0.727 ± 0.07
PPLMLPSTPSSS	0.704 ± 0.095
PPLPAPGPIFLP	0.652 ± 0.037

Sequence	protein stability index
PPLPGHPCLWPT	0.649 ± 0.057
PPLPLPGPDHHL	0.731 ± 0.087
PPLPLPPSRSPA	0.686 ± 0.026
PPLPLPSPRPPP	0.619 ± 0.0092
PPLPPAPPPPPH	0.697 ± 0.056
PPLPPLCRPLPP	0.685 ± 0.1
PPLPPLPSPSPP	0.721 ± 0.092
PPLPPPLRPPPS	0.685 ± 0.026
PPLPPPTSPPRP	0.69 ± 0.038
PPLPPSPSVSPR	0.746 ± 0.021
PPLPSPLCPQPP	0.714 ± 0.032
PPLQRFSYRPGR	0.754 ± 0.069
PPLSLPLCLSPL	0.6838 ± 0.0035
PPPAPDRATIRR	0.673 ± 0.068
PPPAPFSPLPPP	0.7184 ± 0.002
PPPAPPPPPPLP	0.7026 ± 0.0022
PPPAPPPPPPPP	0.693 ± 0.068
PPPAPPPPPTFL	0.688 ± 0.019
PPPAPPSPLLSR	0.685 ± 0.1
PPPFPSPLPPPP	0.678 ± 0.0097
PPPHPLPRPLPT	0.853 ± 0.051
PPPHPPPRLPSP	0.604 ± 0.078
PPPHPTPPLTSP	0.702 ± 0.058

Sequence	protein stability index
PPPHSPVPPSQS	0.68 ± 0.022
PPPLAPPSVPCS	0.604 ± 0.053
PPPLFLSPFPPR	0.727 ± 0.015
PPPLHPTTLPQP	0.733 ± 0.017
PPPLLPAPGSTI	0.662 ± 0.0079
PPPLLPASFHLP	0.629 ± 0.0082
PPPLPPPAPPPP	0.658 ± 0.025
PPPLPPPLPPPL	0.705 ± 0.05
PPPLPRHLRAPP	0.689 ± 0.018
PPPLPVFPRPPP	0.682 ± 0.012
PPPLSLLPAPPA	0.6953 ± 0.0021
PPPLSLSCPFRP	0.712 ± 0.052
PPPLSPSTSDHP	0.652 ± 0.019
PPPNPPPALPPL	0.664 ± 0.047
PPPPAAFFPRSP	0.827 ± 0.11
PPPPAPPVPLPL	0.693 ± 0.016
PPPPASSFSPPR	0.7366 ± 0.0054
PPPPAVPPSPPP	0.645 ± 0.012
PPPPFSPAHLPH	0.6993 ± 0.0042
PPPPHYPHHTAS	0.738 ± 0.029
PPPPLSAPPFSS	0.697 ± 0.051
PPPPLYPQPPPT	0.705 ± 0.025
